Reference: paper PMC11314397, “Purification and Characterization of Proteinaceous Thermostable α-Amylase Inhibitor from Sardinian Common Bean Nieddone Cultivar (Phaseolus vulgaris L.)” (Plants, 2024)

Legend:
[1] = molecular target: α-amylase from Tenebrio molitor (Tenebrio molitor (endogenous in larvae)) (UniProt P56634)
[2] = molecular target: T1, α-amylase from porcine pancreas (porcine, UniProt P00690 16-511); assay: enzyme inhibition kinetics (Lineweaver-Burk); porcine α-amylase with 0, 0.25 and 0.50 µM α-AI, CNP-G3 0.1 to 5 mM as substrate, 250 mM sodium phosphate pH 6.5, 60 mM NaCl, 5 mM CaCl2, 500 mM KSCN, 37 °C, 10 min preincubation; mixed-type inhibition; details: both partners purified
T1 construct: pancreatic α-amylase, pig, from porcine pancreas; also called porcine pancreatic α-amylase; pig α-amylase; source: bought: Sigma-Aldrich (Type VI-B A3176-2.5MU)
T1 sequence (looked up): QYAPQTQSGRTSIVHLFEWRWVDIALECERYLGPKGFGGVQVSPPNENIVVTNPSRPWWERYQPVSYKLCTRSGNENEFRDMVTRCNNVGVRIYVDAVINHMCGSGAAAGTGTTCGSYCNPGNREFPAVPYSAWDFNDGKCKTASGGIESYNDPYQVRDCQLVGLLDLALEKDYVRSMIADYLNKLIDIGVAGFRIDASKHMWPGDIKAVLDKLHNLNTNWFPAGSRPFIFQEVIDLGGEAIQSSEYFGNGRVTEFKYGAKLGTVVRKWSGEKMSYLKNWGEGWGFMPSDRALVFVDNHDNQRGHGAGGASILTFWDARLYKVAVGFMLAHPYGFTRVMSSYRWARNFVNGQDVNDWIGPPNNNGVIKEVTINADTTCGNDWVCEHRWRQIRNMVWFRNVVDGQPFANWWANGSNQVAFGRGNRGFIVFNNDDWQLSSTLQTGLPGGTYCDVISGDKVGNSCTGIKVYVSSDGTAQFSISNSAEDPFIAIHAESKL

Chain of α-amylase from Tenebrio molitor (Tenebrio molitor (endogenous in larvae)) (P56634 whole entry): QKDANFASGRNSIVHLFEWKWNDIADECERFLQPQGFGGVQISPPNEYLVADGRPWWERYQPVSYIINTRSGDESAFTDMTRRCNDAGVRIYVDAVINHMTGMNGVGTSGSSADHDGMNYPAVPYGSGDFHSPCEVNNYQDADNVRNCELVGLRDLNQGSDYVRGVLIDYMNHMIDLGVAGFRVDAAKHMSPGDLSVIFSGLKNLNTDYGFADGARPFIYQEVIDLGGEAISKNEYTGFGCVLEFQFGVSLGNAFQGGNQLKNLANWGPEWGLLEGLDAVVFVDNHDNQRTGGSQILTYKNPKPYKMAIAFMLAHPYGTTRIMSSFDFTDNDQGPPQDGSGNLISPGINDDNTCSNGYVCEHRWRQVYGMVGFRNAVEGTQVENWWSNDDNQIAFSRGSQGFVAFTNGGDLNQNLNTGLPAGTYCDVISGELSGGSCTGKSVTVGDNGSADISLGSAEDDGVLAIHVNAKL

B1: α-amylase inhibitor (α-AI) purified from Phaseolus vulgaris Nieddone cultivar (complex)
chain 1: ATETSFIIDAFNKTNLILQGDATVSSNGNLQLSYNSYDSMSRAFYSAPIQIRDSTTGNVASFDTNFTMNIRTHRQAN
chain 2: SAVGLDFVLVPVQPESKGDTVTVEFDTFLSRISIDVNNNDIKSVPWDVHDYDGQNAEVRITYNSSTKVFSVSLSNPSTGKSNNVSTTVELEKEVYDWVSVGFSATSGAYQWSYETHDVLSWSFSSKFINLKDQKSERSN
modifications: native seed glycoprotein (N-glycosylated; sites not given); alpha2beta2 tetramer cleaved after Asn77 (mature numbering, = Asn100 of precursor). Reference sequence P02873 used: Nieddone cultivar …
- inhibitory power against α-amylase, CNP-G3 assay; susceptibility against that of human salivary and porcine pancreatic α-amylase [1]: 3 fold
- Ki [2]: 170 nM
